In general, stoichiometry N refers to the number of molecules, sites or subunits per partner or assembly.

The source of these data is article PMC3311221 (Nature cell biology, 2011).

This series concerns the molecule itself. In words: SEC + other: glycerol gradient sedimentation.

B1: polyhistidine-tagged full length TFG-1 (natural protein, C. elegans, UniProt Q9U1W1 1-486, looked up)
chain: MVHSNGAITSTILKARHADVVRKTSLHHANDLTLIDLVLNVQRLLALPSDANFVLKYKDEEGDLVTLAEDSDLLLALHTSGATLDVTVVVDSRAREAVHDVQKQVEQIKLDVGKLLGALSALDVAQIAEQSNTSVANLSAPKQSHHDNIVFQKSFEAAPPSPVPSEKAELPATIQPSVHEQFNHRPAHVEEEIPLENHYAPPPHQQIPDDLNTSFSSQPPPPIEQFGAIPPPNATIPSFPTSNAASPPVQEFAPPPPQQQQQQFQAPPPPMASHSSISSTPVQQQGFAPPQQFGGPPPSGPPSEYGGYAPPQQQQQQFGAPPPQGAPQQGFGAPPQGPPQGGPPQGSFGAPPPQQFHAPSPQSFGGPPPPVSSAPGNFAPPPQSGPPGAFAPPPSAFGAPQGPGGPGGYGPPPPGGPGAPGSYGPPQGGPGGFGPPPPGGPGAYGPPPTGFPPVGAPPPGAAGAPGGNPFARGPSATGYRQSPYQQ
On to B1, for which the “stoichiometry N” value came to 6.

B2: polyhistidine-tagged TFG-1 amino-terminus (amino acids 1-195) (domain or fragment, C. elegans, UniProt Q9U1W1 1-195, looked up)
chain: MVHSNGAITSTILKARHADVVRKTSLHHANDLTLIDLVLNVQRLLALPSDANFVLKYKDEEGDLVTLAEDSDLLLALHTSGATLDVTVVVDSRAREAVHDVQKQVEQIKLDVGKLLGALSALDVAQIAEQSNTSVANLSAPKQSHHDNIVFQKSFEAAPPSPVPSEKAELPATIQPSVHEQFNHRPAHVEEEIPL
With B2, the “stoichiometry N” value stood at 8.
